Biological target: human B7-H4 on MX-1 cells (human) (UniProt Q7Z7D3)
Experiment: cell-based or functional assay

Sequence of UniProt Q7Z7D3 (Q7Z7D3 25-282): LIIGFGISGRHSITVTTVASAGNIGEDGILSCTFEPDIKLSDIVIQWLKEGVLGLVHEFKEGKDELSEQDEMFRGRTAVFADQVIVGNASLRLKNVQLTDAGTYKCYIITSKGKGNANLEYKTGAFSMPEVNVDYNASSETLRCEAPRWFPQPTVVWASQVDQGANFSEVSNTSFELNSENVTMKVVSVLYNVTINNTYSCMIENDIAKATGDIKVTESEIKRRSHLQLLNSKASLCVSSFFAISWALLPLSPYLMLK

Humanized antibody-mediated endocytosis efficiency of B7-H4 protein, 0 hour (%): 0%
Humanized antibody-mediated endocytosis efficiency of B7-H4 protein, 0.5 hour (%): 0.1%
Humanized antibody-mediated endocytosis efficiency of B7-H4 protein, 2 hours (%): 0.9%
Substance: IgG control (antibody)

Source: patent publication US20230072897A1, “ANTI-B7-H4 ANTIBODY-DRUG CONJUGATE AND MEDICINAL USE THEREOF” (SHANGHAI HANSOH BIOMEDICAL CO., LTD., priority 2019, published 2023)
